Data as given in IntAct's records for PubMed 25910212.

B1: EF-hand domain-containing protein 1 (Homo sapiens), Q5JVL4 (parent)
chain: MVSNPVHGLPFLPGTSFKDSTKTAFHRSQTLSYRNGYAIVRRPTVGIGGDRLQFNQLSQAELDELASKAPVLTYGQPKQAPPADFIPAHVAFDKKVLKFDAYFQEDVPMSTEEQYRIRQVNIYYYLEDDSMSVIEPVVENSGILQGKLIKRQRLAKNDRGDHYHWKDLNRGINITIYGKTFRVVDCDQFTQVFLESQGIELNPPEKMALDPYTELRKQPLRKYVTPSDFDQLKQFLTFDKQVLRFYAIWDDTDSMYGECRTYIIHYYLMDDTVEIREVHERNDGRDPFPLLMNRQRVPKVLVENAKNFPQCVLEISDQEVLEWYTAKDFIVGKSLTILGRTFFIYDCDPFTRRYYKEKFGITDLPRIDVSKREPPPVKQELPPYNGFGLVEDSAQNCFALIPKAPKKDVIKMLVNDNKVLRYLAVLESPIPEDKDRRFVFSYFLATDMISIFEPPVRNSGIIGGKYLGRTKVVKPYSTVDNPVYYGPSDFFIGAVIEVFGHRFIILDTDEYVLKYMESNAAQYSPEALASIQNHVRKREAPAPEAESKQTEKDPGVQELEALIDTIQKQLKDHSCKDNIREAFQIYDKEASGYVDRDMFFKICESLNVPVDDSLVKELIRMCSHGEGKINYYNFVRAFSN
partner: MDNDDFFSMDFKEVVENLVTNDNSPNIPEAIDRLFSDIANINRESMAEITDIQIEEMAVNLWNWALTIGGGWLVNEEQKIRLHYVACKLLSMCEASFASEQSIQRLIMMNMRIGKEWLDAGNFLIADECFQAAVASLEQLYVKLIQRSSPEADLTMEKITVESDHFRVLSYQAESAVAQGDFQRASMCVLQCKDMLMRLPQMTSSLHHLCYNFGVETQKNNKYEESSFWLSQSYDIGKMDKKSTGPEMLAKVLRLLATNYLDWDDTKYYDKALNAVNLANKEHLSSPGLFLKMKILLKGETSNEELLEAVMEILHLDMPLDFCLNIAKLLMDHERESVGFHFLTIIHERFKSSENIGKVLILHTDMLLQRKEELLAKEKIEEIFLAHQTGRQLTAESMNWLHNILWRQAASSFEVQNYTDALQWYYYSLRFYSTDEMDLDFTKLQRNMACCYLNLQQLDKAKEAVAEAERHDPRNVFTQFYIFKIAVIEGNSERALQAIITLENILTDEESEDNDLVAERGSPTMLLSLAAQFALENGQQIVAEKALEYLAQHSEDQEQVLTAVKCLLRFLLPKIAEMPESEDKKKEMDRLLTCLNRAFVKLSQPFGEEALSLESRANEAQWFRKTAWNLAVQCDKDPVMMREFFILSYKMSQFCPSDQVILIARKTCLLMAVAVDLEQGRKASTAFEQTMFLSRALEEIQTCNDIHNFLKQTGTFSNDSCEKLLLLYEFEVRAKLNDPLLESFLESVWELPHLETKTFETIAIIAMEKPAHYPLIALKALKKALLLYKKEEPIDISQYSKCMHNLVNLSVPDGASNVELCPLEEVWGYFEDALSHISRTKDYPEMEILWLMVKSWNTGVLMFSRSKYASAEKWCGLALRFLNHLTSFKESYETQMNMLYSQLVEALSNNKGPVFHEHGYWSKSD
B2: Mothers against decapentaplegic homolog 3 (Homo sapiens), P84022 (parent)
chain: MSSILPFTPPIVKRLLGWKKGEQNGQEEKWCEKAVKSLVKKLKKTGQLDELEKAITTQNVNTKCITIPRSLDGRLQVSHRKGLPHVIYCRLWRWPDLHSHHELRAMELCEFAFNMKKDEVCVNPYHYQRVETPVLPPVLVPRHTEIPAEFPPLDDYSHSIPENTNFPAGIEPQSNIPETPPPGYLSEDGETSDHQMNHSMDAGSPNLSPNPMSPAHNNLDLQPVTYCEPAFWCSISYYELNQRVGETFHASQPSMTVDGFTDPSNSERFCLGLLSNVNRNAAVELTRRHIGRGVRLYYIGGEVFAECLSDSAIFVQSPNCNQRYGWHPATVCKIPPGCNLKIFNNQEFAALLAQSVNQGFEAVYQLTRMCTIRMSFVKGWGAEYRRQTVTSTPCWIELHLNGPLQWLDKVLTQMGSPSIRCSSVS
B3: THAP domain-containing protein 1 (Homo sapiens), Q9NVV9 (parent)
chain: MVQSCSAYGCKNRYDKDKPVSFHKFPLTRPSLCKEWEAAVRRKNFKPTKYSSICSEHFTPDCFKRECNNKLLKENAVPTIFLCTEPHDKKEDLLEPQEQLPPPPLPPPVSQVDAAIGLLMPPLQTPVNLSVFCDHNYTVEDTMHQRKRIHQLEQQVEKLRKKLKTAQQRCRRQERQLEKLKEVVHFQKEKDDVSERGYVILPNDYFEIVEVPA
B4: Glycophorin-B (Homo sapiens), P06028 (parent)
chain: MYGKIIFVLLLSEIVSISALSTTEVAMHTSTSSSVTKSYISSQTNGETGQLVHRFTVPAPVVIILIILCVMAGIIGTILLISYSIRRLIKA

Variants of: B1
Settings: with TEX11, Q8IYF3-3

| Variant | effect of a mutation on the interaction |
| --- | --- |
| T508R | with no effect |

Variants of: B2
Settings: with wwp1_human WWP1, Q9H0M0

| Variant | effect of a mutation on the interaction |
| --- | --- |
| I170V | with no effect |
| N197I | with no effect |

Variants of: B2
Settings: with crx_human CRX

| Variant | effect of a mutation on the interaction |
| --- | --- |
| I170V | with no effect |
| N197I | with no effect |

Variants of: B2
Settings: with wwp2_human WWP2, O00308

| Variant | effect of a mutation on the interaction |
| --- | --- |
| I170V | with no effect |
| N197I | with no effect |

Variants of: B2
Settings: with smad4_human SMAD4, Q13485

| Variant | effect of a mutation on the interaction |
| --- | --- |
| I170V | with no effect |
| N197I | with no effect |

Variants of: B2
Settings: with meox2_human MEOX2, P50222

| Variant | effect of a mutation on the interaction |
| --- | --- |
| I170V | with no effect |
| N197I | with no effect |

Variants of: B2
Settings: with ccd33_human CCDC33, Q8N5R6

| Variant | effect of a mutation on the interaction |
| --- | --- |
| I170V | with no effect |
| N197I | with no effect |

Variants of: B3
Settings: with RALYL

| Variant | effect of a mutation on the interaction |
| --- | --- |
| MVQSCSAYGCKNRYDKDKPVSFHKFPLTRPSLCKEWEAAVRRKNFKPTKYSSICSEHFTPDCFKRECNNKLLKENAVPTILLCTEPHDKKEDLLEPQEQLPPPPLPPPVSQVDAAIGLLMPPLQTPVNLSVFCDHNYTVEDTMHQRKRIHQLEQQVEKLRKKLKTAQQRCRRQERQLEKLKEVVHFQKEKDDVSERGYVILPNDYFEIVEVPA [F81L] | with no effect |

Variants of: B3
Settings: with nup62_human NUP62, P37198

| Variant | effect of a mutation on the interaction |
| --- | --- |
| MVQSCSAYGCKNRYDKDKPVSFHKFPLTRPSLCKEWEAAVRRKNFKPTKYSSICSEHFTPDCFKRECNNKLLKENAVPTILLCTEPHDKKEDLLEPQEQLPPPPLPPPVSQVDAAIGLLMPPLQTPVNLSVFCDHNYTVEDTMHQRKRIHQLEQQVEKLRKKLKTAQQRCRRQERQLEKLKEVVHFQKEKDDVSERGYVILPNDYFEIVEVPA [F81L] | with no effect |

Variants of: B4
Settings: with ubql1_human UBQLN1, Q9UMX0

| Variant | effect of a mutation on the interaction |
| --- | --- |
| T48M | with no effect |
